In FireProtDB (doi:10.1021/bi9929958):

B1: Superoxide dismutase [Mn], mitochondrial, P04179 (parent)
chain: MLSRAVCGTSRQLAPVLGYLGSRQKHSLPDLPYDYGALEPHINAQIMQLHHSKHHAAYVNNLNVTEEKYQEALAKGDVTAQIALQPALKFNGGGHINHSIFWTNLSPNGGGEPKGELLEAIKRDFGSFDKFKEKLTAASVGVQGSGWGWLGFNKERGHLQIAACPNQDPLQGTTGLIPLLGIDVWEHAYYLQYKNVRPDYLKAIWNVINWENVTERYMACKK

Variants of: B1
Conditions: Homo sapiens; pH 7.8; Thermal; DSC; Potassium phosphate 20 mM; reversible: yes; structure 1N0J; whole UniProt chain shown

Variant: MLSRAVCGTSRQLAPVLGYLGSRQKHSLPDLPYDYGALEPHINAQIMQLHHSKHHAAYVNNLNVTEEKYQEALAKGDVTAQIALQPALKFNGGGHINHSIFWTNLSPNGGGEPKGELLEAIKRDFGSFDKFKEKLTAASVGVQGSGWGWLGFNKERGHLQIAACPNSDPLQGTTGLIPLLGIDVWEHAYYLQYKNVRPDYLKAIWNVINWENVTERYMACKK [Q167S]
- Tm: 94.9 °C
- change of melting temperature, mutant - wild type (higher = more stable): 6 °C

Variant: MLSRAVCGTSRQLAPVLGYLGSRQKHSLPDLPYDYGALEPHINAQIMQLHHSKHHAAYVNNLNVTEEKYQEALAKGDVTAQIALQPALKFNGGGHINHSIFWTNLSPNGGGEPKGELLEAIKRDFGSFDKFKEKLTAASVGVQGSGWGWLGFNKERGHLQIAACPNHDPLQGTTGLIPLLGIDVWEHAYYLQYKNVRPDYLKAIWNVINWENVTERYMACKK [Q167H]
- Tm: 88.9 °C
- change of melting temperature, mutant - wild type (higher = more stable): 0 °C

Variant: MLSRAVCGTSRQLAPVLGYLGSRQKHSLPDLPYDYGALEPHINAQIMQLHHSKHHAAYVNNLNVTEEKYQEALAKGDVTAQIALQPALKFNGGGHINHSIFWTNLSPNGGGEPKGELLEAIKRDFGSFDKFKEKLTAASVGVQGSGWGWLGFNKERGHLQIAACPNEDPLQGTTGLIPLLGIDVWEHAYYLQYKNVRPDYLKAIWNVINWENVTERYMACKK [Q167E]
- Tm: 103 °C
- change of melting temperature, mutant - wild type (higher = more stable): 14.1 °C

Variant: MLSRAVCGTSRQLAPVLGYLGSRQKHSLPDLPYDYGALEPHINAQIMQLHHSKHHAAYVNNLNVTEEKYQEALAKGDVTAQIALQPALKFNGGGHINHSIFWTNLSPNGGGEPKGELLEAIKRDFGSFDKFKEKLTAASVGVQGSGWGWLGFNKERGHLQIAACPNVDPLQGTTGLIPLLGIDVWEHAYYLQYKNVRPDYLKAIWNVINWENVTERYMACKK [Q167V]
- Tm: 68.2 °C
- change of melting temperature, mutant - wild type (higher = more stable): -20.7 °C

Variant: MLSRAVCGTSRQLAPVLGYLGSRQKHSLPDLPYDYGALEPHINAQIMQLHHSKHHAAYVNNLNVTEEKYQEALAKGDVTAQIALQPALKFNGGGHINHSIFWTNLSPNGGGEPKGELLEAIKRDFGSFDKFKEKLTAASVGVQGSGWGWLGFNKERGHLQIAACPNADPLQGTTGLIPLLGIDVWEHAYYLQYKNVRPDYLKAIWNVINWENVTERYMACKK [Q167A]
- Tm: 79.8 °C
- change of melting temperature, mutant - wild type (higher = more stable): -9.1 °C
